{"source": "patent US8309791", "assay_in_all_cases": "cell_activity", "key": {"[1]": {"system": "Tol2 transposase", "details": "colony formation in PEGE cells"}, "[2]": {"system": "Sleeping Beauty transposase SB11 (synthetic (reconstructed fish Tc1-like)?)", "details": "colony formation in PEGE cells"}, "[3]": {"system": "piggyBac transposase", "details": "colony formation in PEGE cells; TTAA target"}, "[4]": {"system": "rtTR-KRAB2S-M2 (Escherichia coli / Homo sapiens fusion?)", "details": "tet-off version, shCFTR1 expression with vs without doxycycline in pig fibroblasts"}, "[5]": {"system": "tTR-KRAB (Escherichia coli / Homo sapiens fusion?)", "details": "tet-on version, shCFTR1 expression with vs without doxycycline in pig fibroblasts"}, "[6]": {"system": "Passport (PP, PPTN) transposase PTs1", "details": "colony formation in PEGE cells"}}}
{"substance": "mini Tol2 transposon inverted repeats (pGTol2P-PTK)", "values": [{"measurement": "activity (fold over no transposase)", "setting": "[1]", "value": 21}]}
{"substance": "SB transposon inverted terminal repeats (pT2-FloxP-PTK, pKT2P-PTK)", "values": [{"measurement": "activity (fold over no transposase)", "setting": "[2]", "value": 13.5}]}
{"substance": "piggyBac LTR1/LTR2 (pPBTP-PTK)", "values": [{"measurement": "activity (fold over no transposase)", "setting": "[3]", "value": 28}]}
{"substance": "tet operator (TRE)", "values": [{"measurement": "activity", "setting": "[4]", "value": 67, "unit": "fold change"}, {"measurement": "activity", "setting": "[5]", "value": 64, "unit": "fold change"}]}
{"substance": "PP transposon inverted repeats (pPTnP-PTK)", "values": [{"measurement": "activity (fold over no transposase)", "setting": "[6]", "value": 5}]}
